The text below walks through data of the nanobody polyreactivity screen of Harvey et al. (2022).

This data set is described as follows: yeast display, Sf9 membrane polyspecificity reagent, FACS + sequencing; frameworks hold sequencing errors. The method, boiled down: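 Galactose-induced (36–48 hours) yeast carrying a synthetic nanobody display library were exposed to 10% biotinylated, detergent-solubilized Sf9 membrane reagent at 4 °C for 1 hour. FACS followed streptavidin microbead enrichment, using low and high (top ~1%) gates for expression (anti-HA) and reagent binding (streptavidin). Colony PCR, MiSeq 2 × 250 sequencing and CDR-length filtering followed. Labels for polyreactivity reflect the gate of origin.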
With “QVQLVESGGGLVQAGGSLRLSCAASRSTFYAYALGCYRQAPGKERELVAAIDSGGSTYYADSVKGRFTISRDNAKNTVYLQMNSLKPEDTAVYYCAVRHRYTRAYWGRDYWGQGTQVTVSS”, the “polyreactivity (PSR sort gate)” value is given as “low polyreactivity”. With “QVQLVESGGGLVQAGGSLRLSCAASGSTFGDYSMGWYRQAPGKERELVAAISRGGSTYYADSVKGRFTISRDNAKNTVYLQMNSLKPEDTAVYYCNNDVGYSASPDGSTFDYWGQGTQVTVSS” the entry was “low polyreactivity”; with “QVQLVESGGCLDQAGGSLRLSCAASGITFGPYAMGWYSQAPGKERELVAAITWGGGSTYYADSVKGRFTLSRDNAKNTDYLLMNSLKPEDTADYYCNAEGSTTSRYLPYDYWGQGTQVTVSS”, “low polyreactivity”; with “QVQLVESGGGLVQAGGSLRLSCAASGNIFYYYAMGWYRQAPGKERELVADITSGGDTDYADSVKGRFTISRDNAKNTVYLQMNSLKPEDTAVYYCNAQYYFHVTYDYWGQGTQVTVSS”, “low polyreactivity”. With “QVQLQESGGGLVQAGGSLRLSCAASGVIFARNYMGWYRQAPGKERELVAGIGVGASTNYADSVKGRFTISRDNAKNTVYLQMNRLEPEDTAVYYCAVVDTVLGYHYYWGQGTQVTVSN” the entry was “low polyreactivity”.

Consider “QVQLVESGGGIVQAGGSLRLSCAASGRIFSVYAKGWTRQAPGKERELVAAISSGGTTYYADSVKGRFTNSRDNAKNTVYLLMNSQKPDDTAVYYFAASVYYYRYNYWGQGTQVTVSS”, for which the “polyreactivity (PSR sort gate)” value is listed as “low polyreactivity”. For the sequence “QVQLVESGGGLVQAGGSLRLSCAASGLTFRRYAMGWYRQAPGKERELVAAINSRGGSTYYADSVKGRFTISRDNAKNTVYLQMNSLKPEDTAVYYCATRSFGRMDYWGQGTQVTVSS”, the “polyreactivity (PSR sort gate)” value is “high polyreactivity”. The result for “QVQLVESGGGLVQAGGSLRLSCAASGSIFFVNDMGWYRQAPGKERELVAAITRDGGTNYADSVKGRFTISRDNAKNTVYLQMNSLKPEDTAVYYCAKESGSVLSLYDYWGQGTQVTVSS” reads “low polyreactivity”; that for “QVQLVESGGGLVQAGGSLRLSCAASGRTFTWNVMGWYRQAPGKERELVAAITTDDRTYADSEKGRFTISRDNAKNTVYLQMNSLKQEDTAVYYCATVVAWTSRPVGEDYWGQGTQVTVSS”, “low polyreactivity”; that for “QVKLVESGGGLVQAGGSLRLSFAASGFTCNANAMGWYRQAPGQERELVAAISLSGGRTYYADSVKGRFTISRDNAKNTVYLQMNSLKAEDTAVYYCAASPDGSFRRFSRVVSGDYWGQGTQVTVSS”, “high polyreactivity”. With “QVQLVESGGGLVQAGGSLRLSCAASGRTFVTYAMGWYRQAPGKERELVAAISKRGSRTYYADSVKGRFTISRDNAKNTVYLQMNSLKPEDTAVYYCNADPYRTSYDYWGQGTQVTVSS” the entry was “high polyreactivity”; with “QVQLVESGGGLVQAGGSLSLSCAASARTFYYYAMGWSRQAPGKEREFVASITWRGGRTYYADSVKGRFTISRDNAKNTVYLQMNSLKPEDTAVYYCAADGSYAIGGYGYWGQGTQVTVSS”, “high polyreactivity”; with “QVHLVESGGGLVQAGCSLRLSCAASGSTISRYAMGWNRQAPGKETELVATITGGGRTYYADSVKGRFTISRDNAKNTVYLQMNSLKPEDTAVYYCAVRGYHQYKYGYWGQGTQVTVSS”, “high polyreactivity”. The result for “QVQLVESGGGLVQAGGSLRLSCAASGSIFRGYALGWYRQAPGKERALVAAITKRGGNTYYADSVKGRFTISRDHAKNTVYLQMNSLKPEDTAVYYCAKAGWGKWVYAQMVYWGQGTQVTVSS” reads “high polyreactivity”. For “QVQLVESGGGLVQAGGSLRLSCAASGRIFGDYAMGWYRQAPGKERELVAAISWSDGSTYYADSVKGRFTISRDNAKNTVYLQMNSLKPEDTAVYYCAAYGWGYRYVDVVVSDFYYWGQGTQVTVSS”, the “polyreactivity (PSR sort gate)” value was “low polyreactivity”. With “QVQLVESGGGLVQAGGSLRLSCAASGSTFSIYTMGWYRQAPGKERELVAAINTGDGDTYYADSVKGRFTISRDNAKNTFYLQMNSLKPEDTAVYYCAAVYSQLSNLYYYWGQGTQVTVSS” the entry was “low polyreactivity”.
